In the assay the target is GFP-β1-integrin (UniProt P05556). As to the kind of experiment: co-IP; GFP-Trap capture of GFP-β1-integrin (or GFP alone) from MEFs spread on 50K-coated dishes, unstimulated or stimulated with H/0 for 10 min, cross-linked with DTBP; western blotting.
Sequence of UniProt P05556 (P05556 21-798): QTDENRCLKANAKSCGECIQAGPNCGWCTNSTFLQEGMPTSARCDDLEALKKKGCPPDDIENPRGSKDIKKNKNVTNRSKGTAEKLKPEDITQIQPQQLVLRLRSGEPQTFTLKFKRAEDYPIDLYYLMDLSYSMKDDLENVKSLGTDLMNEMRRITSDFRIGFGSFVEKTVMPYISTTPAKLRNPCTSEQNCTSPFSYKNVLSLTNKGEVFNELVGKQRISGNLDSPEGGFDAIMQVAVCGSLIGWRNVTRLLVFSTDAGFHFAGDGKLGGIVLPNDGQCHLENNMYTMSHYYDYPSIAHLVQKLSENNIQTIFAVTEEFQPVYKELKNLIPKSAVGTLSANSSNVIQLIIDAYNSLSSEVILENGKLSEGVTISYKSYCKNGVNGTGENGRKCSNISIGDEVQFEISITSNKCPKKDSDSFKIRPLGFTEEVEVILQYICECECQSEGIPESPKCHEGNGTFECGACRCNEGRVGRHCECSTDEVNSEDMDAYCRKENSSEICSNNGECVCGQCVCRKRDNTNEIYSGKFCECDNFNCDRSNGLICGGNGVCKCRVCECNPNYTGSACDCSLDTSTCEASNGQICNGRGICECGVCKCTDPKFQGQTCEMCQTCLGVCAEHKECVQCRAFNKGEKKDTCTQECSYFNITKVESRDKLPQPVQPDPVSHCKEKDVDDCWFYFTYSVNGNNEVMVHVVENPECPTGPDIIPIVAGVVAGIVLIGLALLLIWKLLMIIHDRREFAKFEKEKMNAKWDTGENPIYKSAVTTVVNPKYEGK

Sequence of RhoGDI (Q99PT1 whole entry): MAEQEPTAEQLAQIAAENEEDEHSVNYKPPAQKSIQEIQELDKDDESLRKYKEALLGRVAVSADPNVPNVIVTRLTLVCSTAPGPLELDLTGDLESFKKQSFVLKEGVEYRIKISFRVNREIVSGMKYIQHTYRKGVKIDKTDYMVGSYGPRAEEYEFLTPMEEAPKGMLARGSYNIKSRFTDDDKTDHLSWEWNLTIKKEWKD

“RhoGDI (from UniProt Q99PT1 1-204) (natural protein)” returned a reduction in bound RhoGDI after 10 min H/0 stimulation, against unstimulated cells of 46%.

For the origin of these results see publication PMC3202633.
